From publication PMC6292858 come the findings set out here.

The target of the experiment is DREP2 CIDE domain (amino acids 1–84), wild-type (Drosophila melanogaster). Briefly: SEC-MALS; self-association; Superdex 200 HR 10/30 coupled to three-angle light scattering and refractive index detectors, 0.2 mL/min; wild type measured in 50 mM NaCl and in 1 M NaCl. (In gel filtration, larger molecules generally elute earlier.)

On to “DREP2 CIDE domain (amino acids 1–84), wild-type (domain or fragment)”, for which the stoichiometry N (in general, a count of units in the complex or per binding partner) was in the range of 16 to 18 molecules.
